# Results reported in PMC5331437, “Synthesis of Mono- and Di-Glucosides of Zearalenone and α-/β-Zearalenol by Recombinant Barley Glucosyltransferase HvUGT14077” (Toxins, 2017).
# T1: HvUGT14077 (Hordeum vulgare, UniProt D3WYW3)
# T1 sequence (D3WYW3 1-490): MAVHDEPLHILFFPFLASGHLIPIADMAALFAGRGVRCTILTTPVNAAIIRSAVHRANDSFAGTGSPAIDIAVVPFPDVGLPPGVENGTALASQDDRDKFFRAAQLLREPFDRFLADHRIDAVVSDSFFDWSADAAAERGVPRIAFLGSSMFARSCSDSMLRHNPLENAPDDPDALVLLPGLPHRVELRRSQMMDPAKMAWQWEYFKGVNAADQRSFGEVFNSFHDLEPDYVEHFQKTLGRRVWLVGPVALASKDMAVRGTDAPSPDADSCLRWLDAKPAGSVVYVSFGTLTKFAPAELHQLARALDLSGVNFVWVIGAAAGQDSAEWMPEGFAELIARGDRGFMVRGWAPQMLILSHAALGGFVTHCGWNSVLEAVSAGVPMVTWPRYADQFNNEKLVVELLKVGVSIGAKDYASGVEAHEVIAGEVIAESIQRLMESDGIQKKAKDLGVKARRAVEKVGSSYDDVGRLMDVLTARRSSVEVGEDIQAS
# Key:
# [1] = target: T1, HvUGT14077; assay: LC-MS/MS of glucoside formation; assay type: biochemical; design: gene UGT; nHis6-MalE-TEV-HvUGT14077 fusion (tags kept), E. coli BL21 (DE3), IMAC, predicted 97 kDa incl. tags
# [2] = target: T1, HvUGT14077; assay: LC-MS/MS, steady state, sum of […]- and 16-glucosides, Haldane fit; design: gene UGT; conditions: read-out: Kinetic Constant / Km; 10 mM UDP-glucose; 100 mM Tris/Cl pH 7.5, 37 °C; apparent Km, substrate inhibition model
# [3] = substrate: C[C@H]1CCC[C@@H](O)CCC/C=C/c2cc(O)cc(O)c2C(=O)O1; assay: purified protein; conditions: 10 mM UDP-glucose, 100 mM Tris/Cl pH 7.5, 37 °C, apparent Km, substrate inhibition model
# [4] = substrate: C[C@H]1CCC[C@H](O)CCC/C=C/c2cc(O)cc(O)c2C(=O)O1; assay: purified protein; conditions: 10 mM UDP-glucose, 100 mM Tris/Cl pH 7.5, 37 °C, apparent Km, substrate inhibition model
# [5] = substrate: O=c1ccn([C@@H]2O[C@H](CO[P@@](=O)(O)O[P@@](=O)(O)O[C@H]3O[C@H](CO)[C@@H](O)[C@H](O)[C@H]3O)[C@@H](O)[C@H]2O)c(=O)[nH]1; assay: purified protein; conditions: 25 µM zearalenone, 100 mM Tris/Cl pH 7.5, 37 °C
molecule,measurement,setting,value
O=c1ccn([C@@H]2O[C@H](COP(=O)(O)OP(=O)(O)O)[C@@H](O)[C@H]2O)c(=O)[nH]1 [UDP],IC50,[1],340 µM
"C[C@H]1CCCC(=O)CCC/C=C/c2cc(O)cc(O)c2C(=O)O1 [ZEN, Zearalenone]",Km,[2],3 ± 1 µM
HvUGT14077 (Hordeum vulgare subsp. vulgare) (protein) MAVHDEPLHILFFPFLASGHLIPIADMAALFAGRGVRCTILTTPVNAAIIRSAVHRANDSFAGTGSPAIDIAVVPFPDVGLPPGVENGTALASQDDRDKFFRAAQLLREPFDRFLADHRIDAVVSDSFFDWSADAAAERGVPRIAFLGSSMFARSCSDSMLRHNPLENAPDDPDALVLLPGLPHRVELRRSQMMDPAKMAWQWEYFKGVNAADQRSFGEVFNSFHDLEPDYVEHFQKTLGRRVWLVGPVALASKDMAVRGTDAPSPDADSCLRWLDAKPAGSVVYVSFGTLTKFAPAELHQLARALDLSGVNFVWVIGAAAGQDSAEWMPEGFAELIARGDRGFMVRGWAPQMLILSHAALGGFVTHCGWNSVLEAVSAGVPMVTWPRYADQFNNEKLVVELLKVGVSIGAKDYASGVEAHEVIAGEVIAESIQRLMESDGIQKKAKDLGVKARRAVEKVGSSYDDVGRLMDVLTARRSSVEVGEDIQAS,Km,[3],27 ± 3 µM
same,Vmax,[3],1.2 µmol/min/mg
same,kcat,[3],2 ± 0.1 s⁻¹
same,kcat/Km,[3],74000 M⁻¹ s⁻¹
same,Km,[4],13 ± 2 µM
same,Vmax,[4],0.32 µmol/min/mg
same,kcat,[4],0.52 ± 0.05 s⁻¹
same,kcat/Km,[4],40000 M⁻¹ s⁻¹
same,Km,[5],78 ± 9 µM
